These results are taken from patent publication US20130309248A1.

B1: CR8049 (antibody, V domains shown)
VH: QVTLKESGPVLVKPKETLTLTCTVSGFSLSNTRMGVSWIRQPPGKALEWLAHIFSNDETSYRTSLKRRLTISQDISKSQVVLSMTNVDPADTATYFCARIGSGYESSAYSTWLDP
VL: QVQLQQWGAGLLKPSETLSLTCAVYGGSFTDHYWSWIRQSPGKGLEWIGEVVHSGDTNYTPSLRNRVSISVDSSKNQFSLRLGSVTAADTAVYYCARGRNVAVVGAIQRHYDY
B2: CR8003 (antibody, V domains shown)
VH: EVQLVETGGDLVQPGGSLRLSCSASEFSFSSYWMSWVRQAPGKGLEWVANMKQDGSEKYYVDSVKGRFTISRDNAKNSLYLQMNSLRGEDTAVYYCARGSCDDSWTGCHDAFDI
VL: VLTQPPSVSVAPGQTARIACGGNNIGSKSVHWYQQKPGQAPVLVVYDDSARPSGIPERFSGSNSGNTATLTISRVEAGDEADYYCQVWESGSDLRLL
B3: CR8016 (antibody, V domains shown)
VH: B2 VH with T7S
VL: QSVVTQPPSVSGAPGQRVTISCTGSSSNIGAGYDVHWYQQLPGTAPKLLIYGNNNRPSGVPDRFSGSRSGPLALLAITGLQAEDEADYYCQSYDSSLSVYV
B4: CR8017 (antibody, V domains shown)
VH: B2 VH
VL: SSELTQDPAVSVALGQTVRITCQGDSLRSYYASWYQQKPGQAPVLVIYAKTNRPSGIPDRFSGSTSGNTASLTITGAQAEDEADYYCNSRDSSGNHVV
B5: CR8015 (antibody, V domains shown)
VH: B2 VH with E1Q, V5Q, T7S
VL: VLTQPPSVSVAPGQTAKITCGGDNIGRKSVHWYQQKPGLAPVLVVNDNSDRPSGIPARFSGSNSGNTATLTISRVEAGDEADYYCHVWGSSRDHYV
B6: CR8001 (antibody, V domains shown)
VH: EVQLVESGGGLIQPGGSLRLSCAASGFTVSSNYVSWVRQAPGKGLEWLSLIYTGGTTYYADSVKGRFTISRDNSKNTVFLQMNSLRAEDAAMYYCARVSALRFLQWPNYAMDV
VL: QSALTQPASVSGSPGRSITISCSGTRSDVGGHNYVSWYQQHPGKAPKLMIYEVSHRPSGVSNRFSGSKSGSTASLTISGLQSEDEADYYCSSYTGEGPLGV
B7: CR8018 (antibody, V domains shown)
VH: B2 VH
VL: B6 VL with R16Q, S23T, R26S, H32Y
B8: CR8052 (antibody, V domains shown)
VH: DIQLTQSPSSLSASVGDRVTITCRASQGINTYLNWYQQKPGKAPKVLIFAASTLQSGVPSRFSGSGSGTEFTLNINNLQPEDFATYYCQQSYSTAIT
VL: EVQLVESGGGVVQPGRSLRLSCAASGFSFTTYGMHWVRQAPGKGLEWVAFIWYDGSNKHYQDSVKGRFTISKDNSNNMLYLQMDSLRVADTAVYYCVRDGGYSTWEWYFDL
B9: CR8039 (antibody, V domains shown)
VH: QLQLQESGPGLVKPSETLSLTCTVSGGSIGSYYWSWIRQPPGKGLEWIGYIYYRGGTSYNPSLKSRVTISVDTSKSQFTLKLNSVTAADTAVYYCARKDWGSAAGSVWYFDL
VL: QSALTQPPSASGSPGQSVTISCTGTSSDVGGYNYVSWYQQHPGKAPKLMIREVSKRPSGVPDRFSGSKSGNTASLTVSGLQAEDEAEYYCSSYAGSNNLI

Substitutions are numbered along the chain they refer to.

One assay concerns the target HA of virus A/Mallard/Netherlands/12/2000 (H7N3) (influenza A virus (H7N3)). The assay is described as follows: cell-based or functional assay.
B1: the Neutralization titer SK50 was > 40 µg/mL.

With B2, the Neutralization titer SK50 was > 40 µg/mL.

For B3, the Neutralization titer SK50 is > 40 µg/mL.

Take B4: the Neutralization titer SK50 was > 40 µg/mL.

As to B5, the Neutralization titer SK50 is > 40 µg/mL.

Take B6: the Neutralization titer SK50 was > 40 µg/mL and the SK50 titer was > 40 µg/mL.

On to B7, for which the Neutralization titer SK50 is > 40 µg/mL.

For B8, the Neutralization titer SK50 is > 40 µg/mL.

As for B9, the Neutralization titer SK50 was > 40 µg/mL.

Another assay deals with HA of virus A/Brisbane/59/2007 (H1N1) (influenza A virus (H1N1)). The assay is described as follows: cell-based or functional assay.
As for B1, the Neutralization titer SK50 was > 40 µg/mL.

As for B2, the Neutralization titer SK50 is > 40 µg/mL.

With B3, the Neutralization titer SK50 is > 40 µg/mL.

As to B4, the Neutralization titer SK50 was > 40 µg/mL.

On to B5, for which the Neutralization titer SK50 was > 40 µg/mL.

For B6, the Neutralization titer SK50 was > 40 µg/mL.

As for B7, the Neutralization titer SK50 is > 40 µg/mL.

In the case of B8, the Neutralization titer SK50 was > 40 µg/mL.

On to B9, for which the Neutralization titer SK50 was > 40 µg/mL.

The target of a further assay is HA of virus A/Johannesburg/33/94 (H3N2) (influenza A virus (H3N2)). The assay is described as follows: cell-based or functional assay.
As for B1, the Neutralization titer SK50 is > 40 µg/mL.

On to B2, for which the Neutralization titer SK50 is > 40 µg/mL.

Regarding B3, the Neutralization titer SK50 is > 40 µg/mL.

In the case of B4, the Neutralization titer SK50 was > 40 µg/mL.

As to B5, the Neutralization titer SK50 was > 40 µg/mL.

B6 showed a Neutralization titer SK50 of 6.51 µg/mL and an SK50 titer of 6.5 µg/mL.

For B7, the Neutralization titer SK50 is > 40 µg/mL.

As for B8, the Neutralization titer SK50 is > 40 µg/mL.

In the case of B9, the Neutralization titer SK50 worked out at 1.33 µg/mL.

Another assay addresses HA of virus A/Chick/Germany/N/49 (H10) (influenza A virus (H10)). The assay is described as follows: cell-based or functional assay.
As for B1, the Neutralization titer SK50 was > 40 µg/mL.

On to B2, for which the Neutralization titer SK50 was > 40 µg/mL.

Regarding B3, the Neutralization titer SK50 was > 40 µg/mL.

In the case of B4, the Neutralization titer SK50 was > 40 µg/mL.

In the case of B5, the Neutralization titer SK50 was > 40 µg/mL.

For B6, the Neutralization titer SK50 is > 40 µg/mL and the SK50 titer was > 40 µg/mL.

On to B7, for which the Neutralization titer SK50 was > 40 µg/mL.

On to B8, for which the Neutralization titer SK50 is > 40 µg/mL.

As to B9, the Neutralization titer SK50 is > 40 µg/mL.

The target of a further assay is HA of virus A/New Caledonia/20/1999 (H1N1) (influenza A virus (H1N1)). The assay is described as follows: cell-based or functional assay.
As to B1, the Neutralization titer SK50 is > 40 µg/mL.

On to B2, for which the Neutralization titer SK50 was > 40 µg/mL.

For B3, the Neutralization titer SK50 was > 40 µg/mL.

For B4, the Neutralization titer SK50 is > 40 µg/mL.

As for B5, the Neutralization titer SK50 is > 40 µg/mL.

Regarding B6, the Neutralization titer SK50 is > 40 µg/mL.

Turning to B7, the Neutralization titer SK50 was > 40 µg/mL.

Turning to B8, the Neutralization titer SK50 is > 40 µg/mL.

For B9, the Neutralization titer SK50 was > 40 µg/mL.

The target in another assay is HA of virus A/Wisconsin/67/2005 (H3N2) (influenza A virus (H3N2)). The assay is described as follows: cell-based or functional assay.
As to B1, the Neutralization titer SK50 is 3.26 µg/mL.

For B2, the Neutralization titer SK50 stood at 5.31 µg/mL.

B3 yielded a Neutralization titer SK50 of 1.77 µg/mL.

In turn, B4 came in with a Neutralization titer SK50 of 2.82 µg/mL.

Molecule B5 returned a Neutralization titer SK50 of 23.8 µg/mL.

As for B6, the Neutralization titer SK50 was 11.9 µg/mL and the SK50 titer turned out to be 11.9 µg/mL.

B7 yielded a Neutralization titer SK50 of 6.03 µg/mL.

For the molecule B8, the Neutralization titer SK50 was > 40 µg/mL.

On to B9, for which the Neutralization titer SK50 was 1.8 µg/mL.

For a further assay, the target named is HA of virus A/Hiroshima/52/2005 (H3N2) (influenza A virus (H3N2)). The assay is described as follows: cell-based or functional assay.
For the molecule B1, the Neutralization titer SK50 was found to be 3.54 µg/mL.

Molecule B2 had a Neutralization titer SK50 of 4.27 µg/mL.

In the case of B3, the Neutralization titer SK50 was found to be 8.84 µg/mL.

With B4, the Neutralization titer SK50 was found to be 13.6 µg/mL.

On to B5, for which the Neutralization titer SK50 was 28.3 µg/mL.

Turning to B6, the Neutralization titer SK50 stood at 13 µg/mL and the SK50 titer was 13 µg/mL.

Regarding B7, the Neutralization titer SK50 worked out at 8.45 µg/mL.

On to B8, for which the Neutralization titer SK50 was > 40 µg/mL.

B9 returned a Neutralization titer SK50 of 3.26 µg/mL.

In a further assay the target is HA of virus A/Panama/2000/1999 (H3N2) (influenza A virus (H3N2)). The assay is described as follows: cell-based or functional assay.
For B1, the Neutralization titer SK50 is > 40 µg/mL.

Consider B2, for which the Neutralization titer SK50 was > 40 µg/mL.

Molecule B3 came in with a Neutralization titer SK50 of 28.3 µg/mL.

Consider B4, for which the Neutralization titer SK50 was > 40 µg/mL.

B5: the Neutralization titer SK50 was > 40 µg/mL.

As to B6, the Neutralization titer SK50 was > 40 µg/mL and the SK50 titer was > 40 µg/mL.

Take B7: the Neutralization titer SK50 is > 40 µg/mL.

Molecule B8 displayed a Neutralization titer SK50 of 21.9 µg/mL.

On to B9, for which the Neutralization titer SK50 stood at 4.6 µg/mL.

The target in another assay is 3 H1N1 strains (1999-2007). The assay is described as follows: cell-based or functional assay.
For the molecule B6, the SK50 titer is > 40 µg/mL.

A further assay addresses HA of virus A/Solomon Islands/IVR-145 (H1N1) (influenza A virus (H1N1)). The assay is described as follows: cell-based or functional assay.
B1: the Neutralization titer SK50 is > 40 µg/mL.

Consider B2, for which the Neutralization titer SK50 was > 40 µg/mL.

As to B3, the Neutralization titer SK50 was > 40 µg/mL.

Regarding B4, the Neutralization titer SK50 was > 40 µg/mL.

Take B5: the Neutralization titer SK50 was > 40 µg/mL.

Turning to B6, the Neutralization titer SK50 is > 40 µg/mL.

On to B7, for which the Neutralization titer SK50 is > 40 µg/mL.

Regarding B8, the Neutralization titer SK50 was > 40 µg/mL.

As to B9, the Neutralization titer SK50 is > 40 µg/mL.

The next assay deals with full-length recombinant H3 HA (A/Wisconsin/67/2005) on PER.C6 cells (influenza A virus (H3N2)). The assay is described as follows: FACS, IgG 5 µg/ml, HA-expressing PER.C6 cells; untransfected MFI 4. For orientation: In flow cytometry, cells or beads pass a laser one at a time.
For the molecule B6, the MFI turned out to be 763 MFI.

For B8, the MFI came to 364 MFI.

Consider B9, for which the MFI came out at 503 MFI.

The target of the next assay is full-length recombinant H1 HA (A/New Caledonia/20/1999) on PER.C6 cells (influenza A virus (H1N1)). The description is as above.
For B6, the MFI worked out at 100 MFI.

As for B8, the MFI is 4 MFI.

For the molecule B9, the MFI came out at 4 MFI.

A further assay concerns the target full-length recombinant H7 HA (A/Netherlands/219/2003) on PER.C6 cells (influenza A virus (H7N7)). The assay is described as above.
As for B6, the MFI was 106 MFI.

Consider B8, for which the MFI stood at 5 MFI.

Turning to B9, the MFI came to 4 MFI.

The target of a further assay is full-length recombinant H3 HA (A/Wisconsin/67/2005) on PER.C6 cells (influenza A virus (H3N2)). The assay is described as follows: FACS, IgG 5 µg/ml, HA-expressing PER.C6 cells; untransfected MFI 3.
In the case of B1, the MFI worked out at 542 MFI.

For the molecule B2, the MFI was determined as 657 MFI.

As for B3, the MFI stood at 840 MFI.

On to B4, for which the MFI worked out at 558 MFI.

Take B5: the MFI is 600 MFI.

As to B7, the MFI turned out to be 348 MFI.

The target in the next assay is full-length recombinant H1 HA (A/New Caledonia/20/1999) on PER.C6 cells (influenza A virus (H1N1)). Described as above.
With B1, the MFI was determined as 3 MFI.

On to B2, for which the MFI is 3 MFI.

Turning to B3, the MFI was found to be 3 MFI.

On to B4, for which the MFI came to 3 MFI.

Consider B5, for which the MFI turned out to be 4 MFI.

For the molecule B7, the MFI was 3 MFI.

The target of the next assay is full-length recombinant H7 HA (A/Netherlands/219/2003) on PER.C6 cells (influenza A virus (H7N7)). Described as above.
With B1, the MFI was 4 MFI.

Consider B2, for which the MFI was determined as 5 MFI.

As to B3, the MFI was 5 MFI.

On to B4, for which the MFI is 4 MFI.

B5: the MFI is 4 MFI.

As for B7, the MFI was 4 MFI.
